T1: full-length human CD19 fused with flag and Myc tags at the C-terminus, expressed on HEK293 or K562 cells (human, UniProt P15391 20-556)
T1 construct: whole, on cells; also called CD19/HEK293 cells; CD19-expressing HEK293 cells; not shown: C-terminal flag and Myc tags (pCMV6-Entry vector)
T1 sequence (looked up): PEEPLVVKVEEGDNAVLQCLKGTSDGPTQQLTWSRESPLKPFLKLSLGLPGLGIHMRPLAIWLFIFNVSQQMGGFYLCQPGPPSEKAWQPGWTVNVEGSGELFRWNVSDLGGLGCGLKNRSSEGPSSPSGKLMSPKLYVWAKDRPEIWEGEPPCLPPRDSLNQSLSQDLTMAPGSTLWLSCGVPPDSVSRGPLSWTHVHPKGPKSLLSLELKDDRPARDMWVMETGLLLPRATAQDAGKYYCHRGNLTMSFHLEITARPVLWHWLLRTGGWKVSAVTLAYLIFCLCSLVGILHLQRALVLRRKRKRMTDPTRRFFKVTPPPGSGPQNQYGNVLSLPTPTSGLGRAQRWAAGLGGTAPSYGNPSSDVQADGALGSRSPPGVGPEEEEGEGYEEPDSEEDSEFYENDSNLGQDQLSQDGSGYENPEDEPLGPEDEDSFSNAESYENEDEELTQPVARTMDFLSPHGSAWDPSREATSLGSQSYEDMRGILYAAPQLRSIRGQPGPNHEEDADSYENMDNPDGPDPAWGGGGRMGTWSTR

T2: endogenous CD19 expressed on cell surface (Daudi cells, Raji cells, DLBCL tissue) (UniProt P15391 20-556, limits assumed)
T2 construct: whole, on cells; also called CD19+ Raji cells; CD19-positive DLBCL tissue
T2 sequence (looked up): T1 sequence (looked up)

B1: 2018EP188-B10 (scFv, VH-VL orientation) (scFv)
scFv: QVQLVQSGGGVVQPGKSLRLSCAASGFPFSSYTMHWVRQPPGEGLEWVALISYDGRNLYYADSVKGRFTISRDNSYNSLYLQLSGLRAEDTALYYCARDINRDHFYGMDLWGPGTTVTVSSGGGGSGGGGSGGGGSSYELTQPPSVSVAPGQTARIPCGGTNIGSKGVHWYQQKPGQAPVLVIYYDHSRPSGIPERFSGSNSGNTAALTISRVEAGDEADYYCQVWEGTSDHPVFGGGTKLTVL
notes: Purified from E. coli periplasmic expression; not shown: C-terminal flag and 6xHIS tag
B2: 2018EP187-A12 (scFv, VH-VL orientation) (scFv)
scFv: QVQLQQWGAGLLKPSETLSLTCAVYGGSFSGYYWTWIRQPPGKGLEWIGEINHGGSSNYNPSLKSRVTISVDTSKKQFSLNLNSVTAADTAVYYCARGLGYRSGWYEVENAFDIWGQGTMVTVSSGGGGSGGGGSGGGGSQPVLTQPPSVSVAPGQTARITCGGNKIESRSVHWYQQKPGQAPVLVVYDDGARPSGIPERLSGSNSGDTATLTISRVEPGDEADYYCQVWDGSSVIFGGGTKLTVL
notes: Purified from E. coli periplasmic expression (pET22b); fully human scFv from mRNA display; also called 2018EP187-Al2; not shown: C-terminal flag and 6xHIS tag
B3: 2018EP142-D09 (scFv, VH-VL orientation) (scFv)
scFv: EVQLVESGAEVKKPGASVKVSCKASGYTFTSYYMHWVRQAPGQGLEWMGIINPSGGSTSYAQKFQGRVTITADESTSTAYMELSSLRSEDTAVYYCAREGGYKDFDYWGQGTLVTVSSGGGGSGGGGSGGGGSDIVMTQSPSSLSASVGDRVTVTCRASQSIDTYLNWYQQKPGKAPKLLIYTASTLQSGVPSRFSGSGSGTDFTLTISSLQPEDFATYYCQQSYSAPRTFGQGTKVEIK
notes: Purified from E. coli periplasmic expression; also called EP142-D9; not shown: C-terminal flag and 6xHIS tag
B4: BiTE EP381 (bispecific antibody)
chain: QVQLQQWGAGLLKPSETLSLTCAVYGGSFSGYYWTWIRQPPGKGLEWIGEINHGGSSNYNPSLKSRVTISVDTSKKQFSLNLNSVTAADTAVYYCARGLGYRSGWYEVENAFDIWGQGTMVTVSSGGGGSGGGGSGGGGSQPVLTQPPSVSVAPGQTARITCGGNKIESRSVHWYQQKPGQAPVLVVYDDGARPSGIPERLSGSNSGDTATLTISRVEPGDEADYYCQVWDGSSVIFGGGTKLTVLGGGGSEVQLVESGGGLVQPGGSLRLSCAASGFTFSTYAMNWVRQAPGKGLEWVGRIRSKYNNYATYYADSVKGRFTISRDDSKNTLYLQMNSLRAEDTAVYYCVRHGNFGDSYVSWFAYWGQGTLVTVSSGGGGSGGGGSGGGGSGGGGSQAVVTQEPSLTVSPGGTVTLTCGSSTGAVTTSNYANWVQQKPGKSPRGLIGGTNKRAPGVPARFSGSLLGGKAALTISGAQPEDEADYYCALWYSNHWVFGGGTKLTVLHHHHHH
notes: also called anti-CD19/anti-CD3 BiTE antibody
B5: BiTE EP383 (bispecific antibody)
chain: EVQLVESGAEVKKPGASVKVSCKASGYTFTSYYMHWVRQAPGQGLEWMGIINPSGGSTSYAQKFQGRVTITADESTSTAYMELSSLRSEDTAVYYCAREGGYKDFDYWGQGTLVTVSSGGGGSGGGGSGGGGSDIVMTQSPSSLSASVGDRVTVTCRASQSIDTYLNWYQQKPGKAPKLLIYTASTLQSGVPSRFSGSGSGTDFTLTISSLQPEDFATYYCQQSYSAPRTFGQGTKVEIKGGGGSEVQLVESGGGLVQPGGSLRLSCAASGFTFSTYAMNWVRQAPGKGLEWVGRIRSKYNNYATYYADSVKGRFTISRDDSKNTLYLQMNSLRAEDTAVYYCVRHGNFGDSYVSWFAYWGQGTLVTVSSGGGGSGGGGSGGGGSGGGGSQAVVTQEPSLTVSPGGTVTLTCGSSTGAVTTSNYANWVQQKPGKSPRGLIGGTNKRAPGVPARFSGSLLGGKAALTISGAQPEDEADYYCALWYSNHWVFGGGTKLTVLHHHHHH
notes: as for B4
B6: BiTE EP382 (bispecific antibody)
chain: QVQLVQSGGGVVQPGKSLRLSCAASGFPFSSYTMHWVRQPPGEGLEWVALISYDGRNLYYADSVKGRFTISRDNSYNSLYLQLSGLRAEDTALYYCARDINRDHFYGMDLWGPGTTVTVSSGGGGSGGGGSGGGGSSYELTQPPSVSVAPGQTARIPCGGTNIGSKGVHWYQQKPGQAPVLVIYYDHSRPSGIPERFSGSNSGNTAALTISRVEAGDEADYYCQVWEGTSDHPVFGGGTKLTVLGGGGSEVQLVESGGGLVQPGGSLRLSCAASGFTFSTYAMNWVRQAPGKGLEWVGRIRSKYNNYATYYADSVKGRFTISRDDSKNTLYLQMNSLRAEDTAVYYCVRHGNFGDSYVSWFAYWGQGTLVTVSSGGGGSGGGGSGGGGSGGGGSQAVVTQEPSLTVSPGGTVTLTCGSSTGAVTTSNYANWVQQKPGKSPRGLIGGTNKRAPGVPARFSGSLLGGKAALTISGAQPEDEADYYCALWYSNHWVFGGGTKLTVLHHHHHH
notes: as for B4

Assays:
[1] = molecular target: endogenous CD19 expressed on cell surface (Daudi cells, Raji cells, DLBCL tissue) (UniProt P15391); assay: FACS on Raji cells, secondary reagent alone (background)
[2] = molecular target: T1, full-length human CD19 fused with flag …; assay: FACS on CD19/HEK293 cells, scFv titration, anti-His Alexa 488 detection
Procedure: The diluted samples were incubated with CD19-expressing HEK293 cells (CD19/HEK293 cells) in 96 wells plate on ice for 1 hour. Cells were spun down at 1200 rpm for 5 minutes at 4° C. to remove unbound antibodies. Cells were then washed once with 200 μL of full medium per well. Samples were mixed with an Alexa fluor 488-conjugated anti-His antibody (secondary antibody, 100 μL, 1:1000 diluted) and incubated at 4° C. for 30 minutes in dark. Samples were then spun down at 1200 rpm for 5 minutes at 4° C. and washed twice with 200 uL of 1×PBS per well. The resultant samples were reconstituted in 200 uL of 1×PBS and read on Guava EasyCyte. Analysis was done by counting only Alexa Fluor 488-positive cells and then plotted in Prism 8.1 software.

[3] = molecular target: T1, full-length human CD19 fused with flag …; assay: FACS titration on CD19/HEK293 cells, anti-His Alexa Fluor 488, positive cell counts; 20 nM FMC63 IgG present as competitor
Procedure: Purified anti-CD19 scFv antibodies were titrated from 100 nM with 2-fold serial dilution. […] Cells were spun down at 1200 rpm for 5 minutes at 4° C. Samples were mixed with an Alexa fluor 488-conjugated anti-His antibody (100 uL, 1:1000 diluted) and incubated at 4° C. for 30 minutes in the dark. The samples were spun down at 1200 rpm for 5 minutes at 4° C. and washed twice with 200 μL of 1×PBS per well. The resultant samples were then reconstituted in 200 uL of 1×PBS and read on Guava EasyCyte. Analysis was done by counting only Alexa Fluor 488-positive cells and then plotted in Prism 8.1 software.

[4] = molecular target: T2, endogenous CD19 expressed on cell …; assay: FACS on CD19+ Raji cells, BiTE serially diluted from 200 nM; CD19+ Raji cells, FACS
Procedure: (§1) A solution containing 200 nM of purified anti-CD19/CD3 BiTE antibodies were serial diluted in full medium and incubated with Raji cells in 96 wells plate on ice for one hour. Cells were spun down at 1200 rpm for 5 minutes at 4° C. to remove primary antibodies. Cells were then washed once with 200 uL of full medium per well. Samples were detected with premixed anti-His Biotin Streptavidin Alexa fluor 647 by adding 100 uL of diluted secondary antibody and incubated at 4° C. for 30 minutes in the dark. Samples were spun down at 1200 rpm for 5 minutes at 4° C. and washed twice with 200 uL of 1×PBS per well. Reconstituted samples in 200 uL of 1× PBS and read on Attune NxT cytometer. Analysis was done by Attune NxT software plotting the overlay histogram of CD19 or CD3 binding with secondary antibodies.

[5] = molecular target: T3, CD3 on CD3+ Jurkat T cells (Homo sapiens (Human), UniProt P07766 23-207); assay: FACS on CD3+ Jurkat cells, anti-His biotin/streptavidin Alexa Fluor 647, positive cell counts
T3 construct: also called CD3+ Jurkat cells
Procedure: as §1
A similarly FACS assay was performed to examine the binding activity of the exemplary bispecific anti-CD19/anti-CD3 antibodies to CD3+ Jurkat T cells, following the descriptions above.

[6] = molecular target: T2, endogenous CD19 expressed on cell …; assay: FACS on Raji cells, anti-His biotin/streptavidin Alexa 647 detection
Procedure: as §1

[7] = molecular target: T4, human CD3ε/Fc (human, UniProt P07766 23-126, limits assumed); assay: ELISA, human CD3ε/Fc immobilised, BiTE serially diluted
T4 construct: Immobilised on the ELISA plate at 2 ug/mL; not shown: Fc
Procedure: Further, an ELISA assay was developed to determine the EC50 of anti-CD19/CD3 BiTE antibodies. Briefly, 384 well plate was immobilized with human CD3ε/Fc at final concentration of 2 μg/mL in 1×PBS in total volume of 25 uL per well. The plate was incubated overnight at 4° C. followed by blocking with 80 uL of superblock per well for 1 hour. Anti-CD19/CD3 BiTE proteins were serial diluted, and 25 μL was added to CD3ε immobilized wells and incubated for 1 hour with shaking. The CD3ε binding was detected by adding 25 μL of anti-Flag HRP diluted at 1:5000 in 1×PBST. In between each step, the plate was washed 3 times with 1×PBST in a plate washer. The plate was then developed with 20 μL of TMB substrate for 5 mins and stopped by adding 20 μL of 2N sulfuric acid. The plate was read at OD450 nm Biotek plate reader and then plotted in Prism 8.1 software.

[8] = molecular target: T2, endogenous CD19 expressed on cell …; assay: FACS on CD19+ Raji cells, BiTE serially diluted from 200 nM
Procedure: as §1

T4 sequence (P07766 23-126 limits assumed): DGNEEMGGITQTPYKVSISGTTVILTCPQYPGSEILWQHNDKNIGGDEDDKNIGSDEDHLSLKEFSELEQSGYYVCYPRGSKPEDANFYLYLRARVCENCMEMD
T3 sequence (P07766 23-207 limits assumed): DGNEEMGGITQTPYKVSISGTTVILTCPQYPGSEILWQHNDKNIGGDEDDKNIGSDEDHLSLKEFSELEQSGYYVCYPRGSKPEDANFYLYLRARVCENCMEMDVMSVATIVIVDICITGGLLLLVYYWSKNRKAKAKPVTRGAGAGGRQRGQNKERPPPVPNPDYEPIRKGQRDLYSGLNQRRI

Molecule | EC50 [2] [nM] | EC50 (read off the curve) [5] [nM] | % Raji cells stained positive [6] [%] | EC50 [7] [nM] | also measured
secondary antibody control |  |  |  |  | % Raji cells stained positive [1]: 1.3%
B1 | 1.26 |  |  |  | 
B2 | 0.751 |  |  |  | EC50 (read off the curve) [3]: 1.6 to 3 nM
B3 | 7.18 |  |  |  | 
B4 |  | ~0.8 | ~92.3 | 5.57 | EC50 [4]: 0.766 nM
B5 |  | ~0.8 | ~80 | 3.17 | EC50 [8]: 0.846 nM
B6 |  | ~4 | ~81.1 | 7.58 | EC50 [8]: 3.81 nM

Source: patent publication US20220289843A1 (ELPIS BIOPHARMACEUTICALS, published 2022)
